Laboratory results reported in patent US20210393745A1, “OLIGOMER EXTENDED INSULIN-FC CONJUGATES AND THEIR MEDICAL USE” (Novo Nordisk A/S, priority 2018, published 2021).

Key:
[1] = target: human insulin receptor isotype B (human) (UniProt P06213); assay: SPA competition with [125I-A14Y]-human insulin, membrane-associated human IR-B; relative to human insulin standard
[2] = target: hFcRn ectodomain (human, UniProt P55899); assay: SPR (Biacore 4000), conjugate immobilised by amine coupling, hFcRn ectodomain as analyte, pH 6.0, 25 C, steady-state fit
[3] = target: human insulin-like growth factor-1 receptor (human, UniProt P08069); assay: SPA competition with [125I-Tyr31]-human IGF-1, membrane-associated human IGF-1R; relative to human insulin standard
Procedure: (§1) Membrane-associated human IR and IGF-1R are purified from BHK cells stably transfected with the pZem219B vector containing either the human IR-A, IR-B or IGF-IR insert. BHK cells are harvested and homogenized in ice-cold buffer (25 mM HEPES pH 7.4, 25 mM CaCl₂ and 1 mM MgCl₂, 250 mg/L bacitracin, 0.1 mM Pefablock). The homogenates are layered on a 41% (w/v) sucrose cushion and centrifuged for 75 minutes at 95000 g at 4° C. The plasma membranes are collected, diluted 1:5 with buffer (as above) and centrifuged again for 45 minutes at 40000 g at 4° C. The pellets are resuspended in a minimal volume of buffer and drawn through a needle (size 23) three times before storage at −80° C. until usage. The relative binding affinity for either of the membrane-associated human IR-A, IR-B or IGF-1R is determined by competition binding in a SPA setup. IR assays are performed in duplicate in 96-well OptiPlates (Perkin-Elmer Life Sciences). Membrane protein is incubated with gentle agitation for 150 minutes at 25° C. with 50 pM [¹²⁵IA14Y]-human insulin in a total volume of […] assay buffer (50 mM HEPES, 150 mM NaCl, 5 mM MgSO4, 0.01% Triton X-100, 0.1% (w/v) HSA (Sigma A1887), Complete EDTA-free protease inhibitors), 50 μg of wheat germ agglutinate (WGA)-coated PVT microspheres (GE Healthcare) and increasing concentrations of ligand. Assays are terminated by centrifugation of the plate at 2000 rpm for 2 minutes and bound radioactivity quantified by counting on a TopCount NXT (Perkin-Elmer Life Sciences).
(§2) IGF-1R assays are conducted essentially as for the IR binding assays except that membrane-associated IGF-1R and 50 pM [¹²⁵I-Tyr31]-human IGF-1 were employed.

[4] = target: T1, human insulin receptor isotype A (human, UniProt P06213-2); assay: SPA competition with [125I-A14Y]-human insulin, solubilised human IR-A; relative to human insulin (100%)
[5] = target: T1, human insulin receptor isotype A; assay: SPA competition with [125I-A14Y]-human insulin, membrane-associated human IR-A; relative to human insulin standard
Procedure: as §1, §2

Molecule	Rel. aff. (%) [1] [%]	Kd [2] [nM]	Rel. aff. (%) [3] [%]	Insulin receptor affinity [IC50 relative to HI (%)] [4] [%]	Rel. aff. (%) [5] [%]
(A14E, A21G, A22(GQEP)12, A70K^, A71P, B25H, B29R, desB30 human insulin)/(226A, 227G, 228P, 234A, 235K, 297E, 315Q, 384Q, des447 … (other, epsilon amino group of Lys A70 (A70K) carries the trivalent linker 3,5-bis[(2-acetyl)amino]benzoyl, which bridges to Cys229 of both Fc polypeptides; ; thiol of Cys229 (EU numbering) linked to -C(O)-CH2- of the linker; aglycosylated (made in E. coli)) chain 1: GIVEQCCTSICSLEQLENYCGGQEPGQEPGQEPGQEPGQEPGQEPGQEPGQEPGQEPGQEPGQEPGQEPKP chain 2: FVNQHLCGSHLVEALYLVCGERGFHYTPR chain 3: AGPCPAPEAKGGPSVFLFPPKPKDTLMISRTPEVTCVVVDVSQEDPEVQFNWYVDGVEVHNAKTKPREEQFESTYRVVSVLTVLHQDWLQGKEYKCKVSNKGLPSSIEKTISKAKGQPREPQVYTLPPSQEEMTKNQVSLTCLVKGFYPSDIAVEWESQGQPENNYKTTPPVLDSDGSFFLYSRLTVDKSRWQEGNVFSCSVMHEALHNHYTQKSLSLSLG	–	1500	0.91	4.5	2.97
(A14E, A21G, A22(GQEP)11, A66G, A67Q, A68E, A69K^, A70P, B16E, B25H, B29R, desB30 human insulin)/(226A, 227G, 228P, 234A, 235K, 297E, 315Q, 384Q, des447 … (other, epsilon amino group of Lys A69 (A69K) carries the trivalent linker 3,5-bis[(2-acetyl)amino]benzoyl, which bridges to Cys229 of both Fc polypeptides; ; thiol of Cys229 (EU numbering) linked to -C(O)-CH2- of the linker; aglycosylated (made in E. coli)) chain 1: GIVEQCCTSICSLEQLENYCGGQEPGQEPGQEPGQEPGQEPGQEPGQEPGQEPGQEPGQEPGQEPGQEKP chain 2: FVNQHLCGSHLVEALELVCGERGFHYTPR chain 3: AGPCPAPEAKGGPSVFLFPPKPKDTLMISRTPEVTCVVVDVSQEDPEVQFNWYVDGVEVHNAKTKPREEQFESTYRVVSVLTVLHQDWLQGKEYKCKVSNKGLPSSIEKTISKAKGQPREPQVYTLPPSQEEMTKNQVSLTCLVKGFYPSDIAVEWESQGQPENNYKTTPPVLDSDGSFFLYSRLTVDKSRWQEGNVFSCSVMHEALHNHYTQKSLSLSLG	–	1500	0.29	0.4	0.66
(A14E, A21G, A22(GQEP)11, A66G, A67Q, A68E, A69K^, A70P, B16H, B25H, B29R, desB30 human insulin)/(226A, 227G, 228P, 234A, 235K, 297E, 315Q, 384Q, des447 … (other, epsilon amino group of Lys A69 (A69K) carries the trivalent linker 3,5-bis[(2-acetyl)amino]benzoyl, which bridges to Cys229 of both Fc polypeptides; ; thiol of Cys229 (EU numbering) linked to -C(O)-CH2- of the linker; aglycosylated (made in E. coli)) chain 1: GIVEQCCTSICSLEQLENYCGGQEPGQEPGQEPGQEPGQEPGQEPGQEPGQEPGQEPGQEPGQEPGQEKP chain 2: FVNQHLCGSHLVEALHLVCGERGFHYTPR chain 3: AGPCPAPEAKGGPSVFLFPPKPKDTLMISRTPEVTCVVVDVSQEDPEVQFNWYVDGVEVHNAKTKPREEQFESTYRVVSVLTVLHQDWLQGKEYKCKVSNKGLPSSIEKTISKAKGQPREPQVYTLPPSQEEMTKNQVSLTCLVKGFYPSDIAVEWESQGQPENNYKTTPPVLDSDGSFFLYSRLTVDKSRWQEGNVFSCSVMHEALHNHYTQKSLSLSLG	–	1600	0.1	1.6	1.27

The next lines start with the values.

Rel. aff. (%) [1] [%]	Kd [2] [nM]	Rel. aff. (%) [3] [%]	Insulin receptor affinity [IC50 relative to HI (%)] [4] [%]	Rel. aff. (%) [5] [%]	Molecule
3.05	–	–	–	–	(A14E, A21G, A22(GQEP)12, A70K^, A71P, B25H, B29R, desB30 human insulin)/(226A, 227G, 228P, 234A, 235K, 297E, 315Q, 384Q, des447 hIgG4-Fc(226-447))3,5-bis[(2-acetyl)amino]benzoyl conjugate
1.26	–	–	–	–	(A14E, A21G, A22(GQEP)11, A66G, A67Q, A68E, A69K^, A70P, B16H, B25H, B29R, desB30 human insulin)/(226A, 227G, 228P, 234A, 235K, 297E, 315Q, 384Q, des447 hIgG4-Fc(226-447))3,5-bis[(2-acetyl)amino]benzoyl conjugate
0.59	–	–	–	–	(A14E, A21G, A22(GQEP)11, A66G, A67Q, A68E, A69K^, A70P, B16E, B25H, B29R, desB30 human insulin)/(226A, 227G, 228P, 234A, 235K, 297E, 315Q, 384Q, des447 hIgG4-Fc(226-447))3,5-bis[(2-acetyl)amino]benzoyl conjugate
